According to patent US20220204580A1 (AstraZeneca / MedImmune, published 2022):
Numbered stars: 1 amine (or outer) side, 2 acyl side, 3 side chain; on linkers, the order of the positions; unused ones are H or OH. Bridge positions count the residues as written; N and C are the ends. Square brackets hold non-standard residues; d marks the D form. Side chains are listed from the residue outwards. Ends that are not written are not given here. * marks the point of attachment. C18 diacid = O=C(O)CCCCCCCCCCCCCCCCC(=O)*; γGlu = O=C(O)[C@H](CCC(=O)[*:2])N[*:1]; Aib = CC(C)(N)C(=O)O

Columns and labels:
[1] = target: T1, human amylin receptor (calcitonin receptor co-expressed with receptor activity modifying protein, RAMP3) (human, UniProt P30988 25-474; O60896 24-148); assay: cell-based or functional assay
T1 sequence (looked up) 1: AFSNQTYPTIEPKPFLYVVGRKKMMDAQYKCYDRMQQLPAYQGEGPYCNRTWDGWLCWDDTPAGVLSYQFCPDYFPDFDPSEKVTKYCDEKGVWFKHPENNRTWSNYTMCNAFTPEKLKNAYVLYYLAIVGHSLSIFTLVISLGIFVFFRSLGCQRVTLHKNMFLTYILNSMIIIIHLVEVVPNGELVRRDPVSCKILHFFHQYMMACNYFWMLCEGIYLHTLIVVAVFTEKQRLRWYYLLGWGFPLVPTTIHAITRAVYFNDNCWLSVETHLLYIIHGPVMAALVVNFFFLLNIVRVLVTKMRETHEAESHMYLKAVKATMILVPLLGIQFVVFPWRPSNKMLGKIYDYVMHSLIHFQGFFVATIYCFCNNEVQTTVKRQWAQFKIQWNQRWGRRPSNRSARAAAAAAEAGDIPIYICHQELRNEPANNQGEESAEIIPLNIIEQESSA
T1 sequence (looked up) 2: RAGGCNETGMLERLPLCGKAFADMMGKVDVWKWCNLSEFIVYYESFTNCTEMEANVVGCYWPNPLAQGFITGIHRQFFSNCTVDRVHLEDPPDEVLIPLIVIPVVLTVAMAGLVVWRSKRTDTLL

[2] = target: T2, human calcitonin receptor (human, UniProt P30988 25-474); assay: cell-based or functional assay
T2 sequence (looked up): T1 sequence (looked up) 1

B1: Peptide 64 (SEQ ID NO: 64) (peptide)
peptide: K([γGlu-C18 diacid])CNTATCATQRLANFLVHSS[Aib]NFGPILPPTNVGSRTY-NH2
modifications: disulfide 2-7; N-terminus assumed
SMILES: CC[C@H](C)[C@H](NC(=O)[C@@H]1CCCN1C(=O)CNC(=O)[C@H](Cc1ccccc1)NC(=O)[C@H](CC(N)=O)NC(=O)C(C)(C)NC(=O)[C@H](CO)NC(=O)[C@H](CO)NC(=O)[C@H](Cc1c[nH]cn1)NC(=O)[C@@H](NC(=O)[C@H](CC(C)C)NC(=O)[C@H](Cc1ccccc1)NC(=O)[C@H](CC(N)=O)NC(=O)[C@H](C)NC(=O)[C@H](CC(C)C)NC(=O)[C@H](CCCNC(=N)N)NC(=O)[C@H](CCC(N)=O)NC(=O)[C@@H](NC(=O)[C@H](C)NC(=O)[C@@H]1CSSC[C@H](NC(=O)[C@@H](N)CCCCNC(=O)CC[C@H](NC(=O)CCCCCCCCCCCCCCCCC(=O)O)C(=O)O)C(=O)N[C@@H](CC(N)=O)C(=O)N[C@@H]([C@@H](C)O)C(=O)N[C@@H](C)C(=O)N[C@@H]([C@@H](C)O)C(=O)N1)[C@@H](C)O)C(C)C)C(=O)N[C@@H](CC(C)C)C(=O)N1CCC[C@H]1C(=O)N1CCC[C@H]1C(=O)N[C@H](C(=O)N[C@@H](CC(N)=O)C(=O)N[C@H](C(=O)NCC(=O)N[C@@H](CO)C(=O)N[C@@H](CCCNC(=N)N)C(=O)N[C@H](C(=O)N[C@@H](Cc1ccc(O)cc1)C(N)=O)[C@@H](C)O)C(C)C)[C@@H](C)O
For B1, the “EC50 (cAMP production)” value [1] was 149 pM, the “Ratio (EC50 hCTR / EC50 hAMYR3)” value [1] was 9 and the “EC50 (cAMP production)” value [2] was 1280 pM.

B2: Peptide 62 (SEQ ID NO: 62) (peptide)
peptide: K([γGlu-C18 diacid])CNTATCATQRLANF[dL]VHSS[Aib]NFGPILPPTNVGSNTY-NH2
modifications: disulfide 2-7; N-terminus assumed
SMILES: CC[C@H](C)[C@H](NC(=O)[C@@H]1CCCN1C(=O)CNC(=O)[C@H](Cc1ccccc1)NC(=O)[C@H](CC(N)=O)NC(=O)C(C)(C)NC(=O)[C@H](CO)NC(=O)[C@H](CO)NC(=O)[C@H](Cc1c[nH]cn1)NC(=O)[C@@H](NC(=O)[C@@H](CC(C)C)NC(=O)[C@H](Cc1ccccc1)NC(=O)[C@H](CC(N)=O)NC(=O)[C@H](C)NC(=O)[C@H](CC(C)C)NC(=O)[C@H](CCCNC(=N)N)NC(=O)[C@H](CCC(N)=O)NC(=O)[C@@H](NC(=O)[C@H](C)NC(=O)[C@@H]1CSSC[C@H](NC(=O)[C@@H](N)CCCCNC(=O)CC[C@H](NC(=O)CCCCCCCCCCCCCCCCC(=O)O)C(=O)O)C(=O)N[C@@H](CC(N)=O)C(=O)N[C@@H]([C@@H](C)O)C(=O)N[C@@H](C)C(=O)N[C@@H]([C@@H](C)O)C(=O)N1)[C@@H](C)O)C(C)C)C(=O)N[C@@H](CC(C)C)C(=O)N1CCC[C@H]1C(=O)N1CCC[C@H]1C(=O)N[C@H](C(=O)N[C@@H](CC(N)=O)C(=O)N[C@H](C(=O)NCC(=O)N[C@@H](CO)C(=O)N[C@@H](CC(N)=O)C(=O)N[C@H](C(=O)N[C@@H](Cc1ccc(O)cc1)C(N)=O)[C@@H](C)O)C(C)C)[C@@H](C)O
In the case of B2, the “EC50 (cAMP production)” value [1] is reported as 167 pM, the “Ratio (EC50 hCTR / EC50 hAMYR3)” value [1] is reported as 43 and the “EC50 (cAMP production)” value [2] is reported as 7250 pM.

B3: Peptide 61 (SEQ ID NO: 61) (peptide)
peptide: K([γGlu-C18 diacid])CNTATCATQRLANFLVHSS[Aib]NFGP[dI]LPPTNVGSNTY-NH2
modifications: disulfide 2-7; N-terminus assumed
SMILES: CC[C@@H](C)[C@@H](NC(=O)[C@@H]1CCCN1C(=O)CNC(=O)[C@H](Cc1ccccc1)NC(=O)[C@H](CC(N)=O)NC(=O)C(C)(C)NC(=O)[C@H](CO)NC(=O)[C@H](CO)NC(=O)[C@H](Cc1c[nH]cn1)NC(=O)[C@@H](NC(=O)[C@H](CC(C)C)NC(=O)[C@H](Cc1ccccc1)NC(=O)[C@H](CC(N)=O)NC(=O)[C@H](C)NC(=O)[C@H](CC(C)C)NC(=O)[C@H](CCCNC(=N)N)NC(=O)[C@H](CCC(N)=O)NC(=O)[C@@H](NC(=O)[C@H](C)NC(=O)[C@@H]1CSSC[C@H](NC(=O)[C@@H](N)CCCCNC(=O)CC[C@H](NC(=O)CCCCCCCCCCCCCCCCC(=O)O)C(=O)O)C(=O)N[C@@H](CC(N)=O)C(=O)N[C@@H]([C@@H](C)O)C(=O)N[C@@H](C)C(=O)N[C@@H]([C@@H](C)O)C(=O)N1)[C@@H](C)O)C(C)C)C(=O)N[C@@H](CC(C)C)C(=O)N1CCC[C@H]1C(=O)N1CCC[C@H]1C(=O)N[C@H](C(=O)N[C@@H](CC(N)=O)C(=O)N[C@H](C(=O)NCC(=O)N[C@@H](CO)C(=O)N[C@@H](CC(N)=O)C(=O)N[C@H](C(=O)N[C@@H](Cc1ccc(O)cc1)C(N)=O)[C@@H](C)O)C(C)C)[C@@H](C)O
B3 was tested, and the “EC50 (cAMP production)” value [1] was 99 pM, the “Ratio (EC50 hCTR / EC50 hAMYR3)” value [1] was 7 and the “EC50 (cAMP production)” value [2] was 654 pM.

B4: Peptide 60 (SEQ ID NO: 60) (peptide)
peptide: K([γGlu-C18 diacid])CNTATCATQRLANFLVHSS[Aib]NFGPIL[dP]PTNVGSNTY-NH2
modifications: disulfide 2-7; N-terminus assumed
SMILES: CC[C@H](C)[C@H](NC(=O)[C@@H]1CCCN1C(=O)CNC(=O)[C@H](Cc1ccccc1)NC(=O)[C@H](CC(N)=O)NC(=O)C(C)(C)NC(=O)[C@H](CO)NC(=O)[C@H](CO)NC(=O)[C@H](Cc1c[nH]cn1)NC(=O)[C@@H](NC(=O)[C@H](CC(C)C)NC(=O)[C@H](Cc1ccccc1)NC(=O)[C@H](CC(N)=O)NC(=O)[C@H](C)NC(=O)[C@H](CC(C)C)NC(=O)[C@H](CCCNC(=N)N)NC(=O)[C@H](CCC(N)=O)NC(=O)[C@@H](NC(=O)[C@H](C)NC(=O)[C@@H]1CSSC[C@H](NC(=O)[C@@H](N)CCCCNC(=O)CC[C@H](NC(=O)CCCCCCCCCCCCCCCCC(=O)O)C(=O)O)C(=O)N[C@@H](CC(N)=O)C(=O)N[C@@H]([C@@H](C)O)C(=O)N[C@@H](C)C(=O)N[C@@H]([C@@H](C)O)C(=O)N1)[C@@H](C)O)C(C)C)C(=O)N[C@@H](CC(C)C)C(=O)N1CCC[C@@H]1C(=O)N1CCC[C@H]1C(=O)N[C@H](C(=O)N[C@@H](CC(N)=O)C(=O)N[C@H](C(=O)NCC(=O)N[C@@H](CO)C(=O)N[C@@H](CC(N)=O)C(=O)N[C@H](C(=O)N[C@@H](Cc1ccc(O)cc1)C(N)=O)[C@@H](C)O)C(C)C)[C@@H](C)O
For B4, the “EC50 (cAMP production)” value [1] was 96 pM, the “Ratio (EC50 hCTR / EC50 hAMYR3)” value [1] was 11 and the “EC50 (cAMP production)” value [2] was 1030 pM.

B5: Peptide 63 (SEQ ID NO: 63) (peptide)
peptide: K([γGlu-C18 diacid])CNTATCATQRLANFLVHSS[Aib]NFGPILPPTRVGSNTY-NH2
modifications: disulfide 2-7; N-terminus assumed
SMILES: CC[C@H](C)[C@H](NC(=O)[C@@H]1CCCN1C(=O)CNC(=O)[C@H](Cc1ccccc1)NC(=O)[C@H](CC(N)=O)NC(=O)C(C)(C)NC(=O)[C@H](CO)NC(=O)[C@H](CO)NC(=O)[C@H](Cc1c[nH]cn1)NC(=O)[C@@H](NC(=O)[C@H](CC(C)C)NC(=O)[C@H](Cc1ccccc1)NC(=O)[C@H](CC(N)=O)NC(=O)[C@H](C)NC(=O)[C@H](CC(C)C)NC(=O)[C@H](CCCNC(=N)N)NC(=O)[C@H](CCC(N)=O)NC(=O)[C@@H](NC(=O)[C@H](C)NC(=O)[C@@H]1CSSC[C@H](NC(=O)[C@@H](N)CCCCNC(=O)CC[C@H](NC(=O)CCCCCCCCCCCCCCCCC(=O)O)C(=O)O)C(=O)N[C@@H](CC(N)=O)C(=O)N[C@@H]([C@@H](C)O)C(=O)N[C@@H](C)C(=O)N[C@@H]([C@@H](C)O)C(=O)N1)[C@@H](C)O)C(C)C)C(=O)N[C@@H](CC(C)C)C(=O)N1CCC[C@H]1C(=O)N1CCC[C@H]1C(=O)N[C@H](C(=O)N[C@@H](CCCNC(=N)N)C(=O)N[C@H](C(=O)NCC(=O)N[C@@H](CO)C(=O)N[C@@H](CC(N)=O)C(=O)N[C@H](C(=O)N[C@@H](Cc1ccc(O)cc1)C(N)=O)[C@@H](C)O)C(C)C)[C@@H](C)O
In the case of B5, the “EC50 (cAMP production)” value [1] is reported as 76 pM, the “Ratio (EC50 hCTR / EC50 hAMYR3)” value [1] is reported as 5 and the “EC50 (cAMP production)” value [2] is reported as 375 pM.

B6: Peptide 65 (SEQ ID NO: 65) (peptide)
peptide: K([γGlu-C18 diacid])KCNTATCATQRLANFLRHSS[Aib]NFGPILPPTNVGSNTY-NH2
modifications: disulfide 3-8; N-terminus assumed
SMILES: CC[C@H](C)[C@H](NC(=O)[C@@H]1CCCN1C(=O)CNC(=O)[C@H](Cc1ccccc1)NC(=O)[C@H](CC(N)=O)NC(=O)C(C)(C)NC(=O)[C@H](CO)NC(=O)[C@H](CO)NC(=O)[C@H](Cc1c[nH]cn1)NC(=O)[C@H](CCCNC(=N)N)NC(=O)[C@H](CC(C)C)NC(=O)[C@H](Cc1ccccc1)NC(=O)[C@H](CC(N)=O)NC(=O)[C@H](C)NC(=O)[C@H](CC(C)C)NC(=O)[C@H](CCCNC(=N)N)NC(=O)[C@H](CCC(N)=O)NC(=O)[C@@H](NC(=O)[C@H](C)NC(=O)[C@@H]1CSSC[C@H](NC(=O)[C@H](CCCCN)NC(=O)[C@@H](N)CCCCNC(=O)CC[C@H](NC(=O)CCCCCCCCCCCCCCCCC(=O)O)C(=O)O)C(=O)N[C@@H](CC(N)=O)C(=O)N[C@@H]([C@@H](C)O)C(=O)N[C@@H](C)C(=O)N[C@@H]([C@@H](C)O)C(=O)N1)[C@@H](C)O)C(=O)N[C@@H](CC(C)C)C(=O)N1CCC[C@H]1C(=O)N1CCC[C@H]1C(=O)N[C@H](C(=O)N[C@@H](CC(N)=O)C(=O)N[C@H](C(=O)NCC(=O)N[C@@H](CO)C(=O)N[C@@H](CC(N)=O)C(=O)N[C@H](C(=O)N[C@@H](Cc1ccc(O)cc1)C(N)=O)[C@@H](C)O)C(C)C)[C@@H](C)O
For B6, the “EC50 (cAMP production)” value [1] was 207 pM, the “Ratio (EC50 hCTR / EC50 hAMYR3)” value [1] was 31 and the “EC50 (cAMP production)” value [2] was 6400 pM.
